# Measured values: the supplement of paper PMC10126150
# ± gives the standard deviation of the averaged measurements.
# Tested on: ATP
# Experiment: switch fluorescence ratio, 500 uM ATP over buffer (Cy3 cluster intensity, sum of 5 cycles each) (fold (ratio)); higher = stronger signal-on switching upon ATP binding; sequences stand for … in TCGTCGGCAGCGTCAGATGTGTATAAGAGACAGTTTTTTTTTTTTTTTTTTTTTTTTT…TC
# Conditions: aptamer strand: ATP DNA aptamer (quencher-CACCTGGGGGAGTATTGCGGAGGAAGG + anchor), 100 nM annealed; ATP concentration: 500 uM
# Method in brief: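 For every switch-domain sequence, the fluorescence ratio is the mean of per-cluster values, each being summed target-cycle Cy3 intensity over summed buffer-cycle Cy3 intensity. Clusters outside 100-1000 RFU were excluded. On a modified Illumina MiSeq flow-cell, the Cy3-labelled switching-strand clusters were annealed to 100 nM quencher-labelled ATP aptamer, imaged in selection buffer and then after 15 min with 500 uM ATP at 22 °C. Five such cycles were run, with NaOH stripping and re-annealing between them.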
# 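Further: ATP exposure 15 min at 22 °C before imaging.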
row,Sequence,switch fluorescence ratio
1,CGGATAGTGC,1.07 ± 0.11
2,CCGTGATATG,2.492 ± 0.0084
3,AGGGGCTTTA,1.14 ± 0.2
4,ATGGGAGTTT,1.01 ± 0.01
5,GGGTTGATTA,0.9898 ± 0.0084
6,TTGCGACGCT,1.17 ± 0.13
7,AAAAAGCTGG,1.03 ± 0.038
8,AGTGGGGCT,0.9794 ± 0.0071
9,TCTGTTTTTG,1.01 ± 0.063
10,AGTGGATTGT,1.01 ± 0.046
11,GGTGCAGGGG,1.11 ± 0.023
12,CATTGAGGGC,0.987 ± 0.021
13,TCGGAATCTG,1 ± 0.1
14,ACATATGGGC,0.974 ± 0.037
15,CATCCGGGGG,1.56 ± 0.73
16,TTTTTGACC,1.008 ± 0.0017
17,GGAGACATGT,1.006 ± 0.0022
18,GCAAAATTGG,1.04 ± 0.02
19,TTTACAGGTT,1.11 ± 0.1
20,AGTAAGAGGG,1.01 ± 0.012
21,TAATAGGGCA,1.002 ± 0.007
22,GTGGTGCACG,0.9971 ± 0.0026
23,AATTGGGGTA,0.989 ± 0.026

row,Sequence,switch fluorescence ratio
1,CTGTATGATC,1 ± 0.024
2,AAAACCAGGG,1.08 ± 0.033
3,TCGGGAGTAC,1.01 ± 0.015
4,TGTGAGTTTA,0.978 ± 0.028
5,TTTCCCGACG,1.12 ± 0.11
6,TGTCAGGAAA,0.9717 ± 0.0065
7,AGTTGCGTTG,0.996 ± 0.015
8,GAGTGTCAGC,1 ± 0.035
9,CGTTCAATTA,0.996 ± 0.027
10,TCCTTAATTT,1.02 ± 0.055
11,AGAATATTAA,0.978 ± 0.013
12,AGCTGATTTT,0.982 ± 0.033
13,TTTGTTTGCA,1.01 ± 0.054
14,GTGCTAAATA,1.02 ± 0.0067
15,GATTATCTCG,0.99 ± 0.049
16,GAGCTAGTCA,0.975 ± 0.037
17,TGGTTGAATT,0.992 ± 0.05
18,AGGATGTTGG,0.993 ± 0.026
19,ACAATTGGAG,0.9969 ± 0.0044
20,CCATAGGTCC,1.017 ± 0.0071
21,GTATTTGGGG,0.985 ± 0.034
22,GAGAATCGTC,1.05 ± 0.064
23,GAAGTTGTCG,1.02 ± 0.02

row,Sequence,switch fluorescence ratio
1,TTGTGGGTTA,0.96 ± 0.012
2,TCTCGTATAT,1.05 ± 0.045
3,TTTTATGTCT,0.976 ± 0.03
4,TACGGGGGTA,1.02 ± 0.036
5,TTCAGATGGG,0.972 ± 0.01
6,CGGGGGTCCT,0.986 ± 0.015
7,TTTAGTCGCG,0.967 ± 0.039
8,ACTTTTCGGC,0.9915 ± 0.0073
9,ATTGAAAGGC,1.29 ± 0.42
10,TACGATGTGC,1.0053 ± 0.00075
11,TGAAATTTAT,1.01 ± 0.032
12,ATTCACTTAG,1.09 ± 0.011
13,ATGGGGGTAC,0.998 ± 0.014
14,ATTTTTTTGT,1 ± 0.026
15,TTAGGGCCAA,1 ± 0.0078
16,CGTCGTGGAG,1.01 ± 0.036
17,CGAATTAATT,0.96152 ± 0.00065
18,GTGAAGGGTT,0.993 ± 0.039
19,AGCTGGAATA,1 ± 0.06
20,TCTCTGGCAT,1.79 ± 0.19
21,TTGTTTAGGG,0.999 ± 0.049
22,TATATGAGGG,1 ± 0.057
23,CTTTTCTTAA,0.996 ± 0.0011

row,Sequence,switch fluorescence ratio
1,CGCCGGGGGC,1.03 ± 0.014
2,TGACGTTGAG,0.9868 ± 0.0056
3,TCGGTTAGT,0.96 ± 0.054
4,CAGAGGTAGG,0.973 ± 0.023
5,CTTGATTAGG,0.9981 ± 0.0037
6,GGTGTTTAAT,0.979 ± 0.016
7,CGGTTTAAGT,0.993 ± 0.028
8,TCGCTTTGCT,1.31 ± 0.42
9,AGTATATTGG,0.99 ± 0.044
10,TTGCTAGGGC,1.01 ± 0.033
11,GATGCAGTAT,1.12 ± 0.044
12,TGGGGCGGGT,1.02 ± 0.017
13,TGTGTGTTGA,1.023 ± 0.0026
14,CAAATGTCAA,0.987 ± 0.015
15,CCAGGTCCGC,1.455 ± 0.0073
16,GGGGGGTCGC,0.99 ± 0.041
17,CCAGGGGCGG,1.067 ± 0.002
18,AATTCGTGAA,1.01 ± 0.013
19,GGGAAAACCA,1.01 ± 0.0098
20,TCGGGGATCG,1.006 ± 0.0025
21,TCCAGAACCC,1 ± 0.011
22,TTGGGGGGAA,1.01 ± 0.025
23,CGGGAATCTC,1.085 ± 0.0081

row,Sequence,switch fluorescence ratio
1,GTTAGACTCA,1.01 ± 0.014
2,GCTTATGTAC,1.16 ± 0.019
3,GCGTATGAGA,1.02 ± 0.013
4,CGGGGAGTTT,0.978 ± 0.05
5,CAGAAATTAG,1.005 ± 0.0024
6,TCAAAATTTA,1.02 ± 0.048
7,TGCAAGGCGC,1.23 ± 0.24
8,CTGCAGTTGA,1.04 ± 0.024
9,CAGTGGTCGT,0.999 ± 0.011
10,GGGATTAGTT,1.03 ± 0.023
11,TGAAGTCTGC,0.968 ± 0.036
12,CAAGAGTGTG,0.98 ± 0.032
13,ATTAAGCAT,1.04 ± 0.053
14,AACGTTTGCG,0.986 ± 0.017
15,GGTATGAGAC,1.01 ± 0.044
16,GCGGCCCGAG,0.962 ± 0.022
17,GAGGTGGGGA,0.9826 ± 0.0055
18,CGGGCAGCGG,0.955 ± 0.06
19,AGGGGGCAAT,1.11 ± 0.18
20,AGGCCCGTTT,1.02 ± 0.029
21,ATGGTTAGTG,0.975 ± 0.011
22,CCTTGGAACG,1.03 ± 0.011
23,ATAAACGGCT,1.01 ± 0.021

row,Sequence,switch fluorescence ratio
1,GGGCATGGGC,0.9965 ± 0.0015
2,GGTTAAAAGG,1 ± 0.032
3,CTGTTGGGAA,1.04 ± 0.091
4,CGTTGCTCGA,0.9992 ± 0.0064
5,ACTATTTGTT,1.04 ± 0.027
6,GGATGGAAGG,0.963 ± 0.033
7,CAACGGGCCA,1.01 ± 0.029
8,ACTTCTGGCT,0.9717 ± 0.0054
9,GGGGCATGGG,0.995 ± 0.033
10,TAGCGTTTCC,1.097 ± 0.0047
11,AATTTGTTGT,0.996 ± 0.025
12,ACGCCGGATT,1.01 ± 0.027
13,GAGATCTTTG,0.967 ± 0.015
14,TAATTAGCGC,1.03 ± 0.016
15,GATTTGTTGG,0.9815 ± 0.0055
16,TTTTGGGGCC,1 ± 0.032
17,TATGAGATAG,0.982 ± 0.021
18,CTTTTGGATT,0.998 ± 0.022
19,AGAGGAGTCT,0.9706 ± 0.0019
20,GCATGGGCTG,1.04 ± 0.019
21,GGTTTAAGTC,1.06 ± 0.029
22,AAGTGGATTG,1.003 ± 0.01
23,TTTTACCGT,0.996 ± 0.012

row,Sequence,switch fluorescence ratio
1,GGGCTTTCTG,0.98 ± 0.05
2,ATTTTCAGAT,1.003 ± 0.0045
3,CAGTGCGTGG,0.988 ± 0.017
4,TATGTACGTG,1.02 ± 0.053
5,TGGGGCGAAG,1.01 ± 0.026
6,TCTAATGGGC,0.993 ± 0.05
7,AGCAAGGGCG,1.06 ± 0.074
8,TAAAGGAGGT,1.01 ± 0.046
9,AACCGGTATT,0.9752 ± 0.0059
10,CATTTAAGTC,0.995 ± 0.023
11,ATGAATCTCG,0.9898 ± 0.0075
12,TATAGGATTT,1 ± 0.08
13,CCTGATTTGG,0.969 ± 0.03
14,AGTGGTGGTG,0.9902 ± 0.0039
15,TAGGCCCTTG,1.01 ± 0.043
16,TTTATCTAGG,1.02 ± 0.017
17,GATTGAGACT,1.01 ± 0.026
18,TAACGGGGGT,1.02 ± 0.062
19,GTTACGAGTT,0.977 ± 0.012
